{"source": "patent US20070110760A1", "target": "Syk kinase (endogenous, in cell lysates) (not stated (endogenous in murine NMuMG cells and in Bal-17 B cells)) (UniProt P48025)", "sequence (P48025 whole entry)": "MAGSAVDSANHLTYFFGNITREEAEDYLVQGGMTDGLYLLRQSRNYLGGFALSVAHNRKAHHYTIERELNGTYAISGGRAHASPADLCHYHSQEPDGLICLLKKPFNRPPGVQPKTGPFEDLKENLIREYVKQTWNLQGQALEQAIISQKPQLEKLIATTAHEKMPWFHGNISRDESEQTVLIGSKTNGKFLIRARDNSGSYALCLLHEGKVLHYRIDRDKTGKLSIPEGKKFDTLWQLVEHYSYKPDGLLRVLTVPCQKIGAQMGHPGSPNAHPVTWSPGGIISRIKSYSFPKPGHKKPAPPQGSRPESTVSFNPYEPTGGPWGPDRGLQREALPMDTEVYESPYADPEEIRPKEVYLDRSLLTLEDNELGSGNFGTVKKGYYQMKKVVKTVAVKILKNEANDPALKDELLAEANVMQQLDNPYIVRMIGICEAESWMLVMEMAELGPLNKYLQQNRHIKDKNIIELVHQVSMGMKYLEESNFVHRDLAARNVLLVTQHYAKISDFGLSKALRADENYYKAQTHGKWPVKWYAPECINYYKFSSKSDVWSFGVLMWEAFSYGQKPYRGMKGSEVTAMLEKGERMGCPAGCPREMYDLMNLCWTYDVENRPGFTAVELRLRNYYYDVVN", "test": "co-immunoprecipitation in the presence of tyrosine phosphatase inhibitors, NMuMG lysates, three independent experiments", "data": [{"substance": "MMTV Env surface unit (SU or gp52), unmutated envelope (from UniProt P03374 99-454)", "values": [{"measurement": "percent of SU co-immunoprecipitated with Syk", "value": "< 34", "unit": "%"}]}]}
